Test results from patent publication US20160108091A1 (Novartis, published 2016).
Bridges are numbered along the chain shown (N, C = ends). [ ]: non-standard residue; d: D form. The star is where a group is joined. pGlu = O=C1CC[C@@H](C(=O)O)N1; NHPhenethyl = c1ccc(CCN*)cc1; d(hCys) = N[C@H](CCS)C(=O)O; dNle = CCCC[C@@H](N)C(=O)O; hCys = N[C@@H](CCS)C(=O)O; Nle = CCCC[C@H](N)C(=O)O

T1: human APJ receptor (hAPJ) (human, UniProt P35414 1-380)
T1 sequence (looked up): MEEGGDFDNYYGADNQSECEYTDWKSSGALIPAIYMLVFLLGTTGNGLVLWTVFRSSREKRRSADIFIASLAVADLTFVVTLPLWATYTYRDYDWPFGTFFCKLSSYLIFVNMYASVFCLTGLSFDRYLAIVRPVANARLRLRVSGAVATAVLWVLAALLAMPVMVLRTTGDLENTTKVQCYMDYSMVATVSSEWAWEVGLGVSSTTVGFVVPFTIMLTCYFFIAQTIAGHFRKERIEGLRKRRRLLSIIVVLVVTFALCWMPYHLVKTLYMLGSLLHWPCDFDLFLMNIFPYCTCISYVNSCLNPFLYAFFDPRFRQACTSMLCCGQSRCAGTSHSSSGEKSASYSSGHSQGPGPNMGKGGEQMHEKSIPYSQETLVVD


target: T1, human APJ receptor (hAPJ); assay: cell-based or functional assay

| hAPJ Ca^2+ Flux EC50 | Binder |
| --- | --- |
| 3.2 nM | Ac-CRPRLSCKGP[Nle]P-NHPhenethyl (disulfide 1-7) [Ac-C*-R-P-R-L-S-C*-K-G-P-Nle-P-NH(Phenethyl)] |
| 2.9 nM | [pGlu]RCRLSCKGP[dNle][dA][dF]-OH (disulfide 3-7; SMILES CCCC[C@@H](NC(=O)[C@@H]1CCCN1C(=O)CNC(=O)[C@H](CCCCN)NC(=O)[C@@H]1CSSC[C@H](NC(=O)[C@H](CCCNC(=N)N)NC(=O)[C@@H]2CCC(=O)N2)C(=O)N[C@@H](CCCNC(=N)N)C(=O)N[C@@H](CC(C)C)C(=O)N[C@@H](CO)C(=O)N1)C(=O)N[C@H](C)C(=O)N[C@H](Cc1ccccc1)C(=O)O) [pE-R-C*-R-L-S-C*-K-G-P-(D-Nle)-a-f-OH] |
| 32.2 nM | Ac-CRPRLSCKGP[Nle]-NHPhenethyl (disulfide 1-7; SMILES CCCC[C@H](NC(=O)[C@@H]1CCCN1C(=O)CNC(=O)[C@H](CCCCN)NC(=O)[C@@H]1CSSC[C@H](NC(C)=O)C(=O)N[C@@H](CCCNC(=N)N)C(=O)N2CCC[C@H]2C(=O)N[C@@H](CCCNC(=N)N)C(=O)N[C@@H](CC(C)C)C(=O)N[C@@H](CO)C(=O)N1)C(=O)NCCc1ccccc1) [Ac-C*-R-P-R-L-S-C*-K-G-P-Nle-NH(Phenethyl)] |
| 174 nM | Ac-[d(hCys)]RPRLS[hCys]KGP[dF][dA][dF]-OH (disulfide 1-7; SMILES CC(=O)N[C@@H]1CCSSCC[C@@H](C(=O)N[C@@H](CCCCN)C(=O)NCC(=O)N2CCC[C@H]2C(=O)N[C@H](Cc2ccccc2)C(=O)N[C@H](C)C(=O)N[C@H](Cc2ccccc2)C(=O)O)NC(=O)[C@H](CO)NC(=O)[C@H](CC(C)C)NC(=O)[C@H](CCCNC(=N)N)NC(=O)[C@@H]2CCCN2C(=O)[C@H](CCCNC(=N)N)NC1=O) [Ac-(D-hC)*-R-P-R-L-S-(hC)*-K-G-P-f-a-f-OH] |
| 14.1 nM | Ac-[d(hCys)]RPRLS[hCys]KGP[Nle]PF-OH (disulfide 1-7; SMILES CCCC[C@H](NC(=O)[C@@H]1CCCN1C(=O)CNC(=O)[C@H](CCCCN)NC(=O)[C@@H]1CCSSCC[C@@H](NC(C)=O)C(=O)N[C@@H](CCCNC(=N)N)C(=O)N2CCC[C@H]2C(=O)N[C@@H](CCCNC(=N)N)C(=O)N[C@@H](CC(C)C)C(=O)N[C@@H](CO)C(=O)N1)C(=O)N1CCC[C@H]1C(=O)N[C@@H](Cc1ccccc1)C(=O)O) [Ac-(D-hC)*-R-P-R-L-S-hC*-K-G-P-Nle-P-F-OH] |
| 79.3 nM | Ac-[dC]RPRLS[hCys]KGP[dNle][dA][dF]-OH (not fully specified; printed as Ac-c-R-P-R-L-S-(hC)-K-G-P-(D-Nle)-a-f-OH; cysteine pairing not given here) [Ac-c-R-P-R-L-S-(hC)-K-G-P-(D-Nle)-a-f-OH] |
| 194 nM | Ac-CRPRLS[dC]KGP[Nle]PF-OH (disulfide 1-7; SMILES CCCC[C@H](NC(=O)[C@@H]1CCCN1C(=O)CNC(=O)[C@H](CCCCN)NC(=O)[C@H]1CSSC[C@H](NC(C)=O)C(=O)N[C@@H](CCCNC(=N)N)C(=O)N2CCC[C@H]2C(=O)N[C@@H](CCCNC(=N)N)C(=O)N[C@@H](CC(C)C)C(=O)N[C@@H](CO)C(=O)N1)C(=O)N1CCC[C@H]1C(=O)N[C@@H](Cc1ccccc1)C(=O)O) [Ac-C*-R-P-R-L-S-c*-K-G-P-Nle-P-F-OH] |
| 1 nM | [pGlu]RCRLSCKGP[Nle]PF-OH (disulfide 3-7; SMILES CCCC[C@H](NC(=O)[C@@H]1CCCN1C(=O)CNC(=O)[C@H](CCCCN)NC(=O)[C@@H]1CSSC[C@H](NC(=O)[C@H](CCCNC(=N)N)NC(=O)[C@@H]2CCC(=O)N2)C(=O)N[C@@H](CCCNC(=N)N)C(=O)N[C@@H](CC(C)C)C(=O)N[C@@H](CO)C(=O)N1)C(=O)N1CCC[C@H]1C(=O)N[C@@H](Cc1ccccc1)C(=O)O) [pE-R-C*-R-L-S-C*-K-G-P-Nle-P-F-OH] |
| 227 nM | [pGlu]RCRLSCKGP[dNle]-NH2 (disulfide 3-7; SMILES CCCC[C@@H](NC(=O)[C@@H]1CCCN1C(=O)CNC(=O)[C@H](CCCCN)NC(=O)[C@@H]1CSSC[C@H](NC(=O)[C@H](CCCNC(=N)N)NC(=O)[C@@H]2CCC(=O)N2)C(=O)N[C@@H](CCCNC(=N)N)C(=O)N[C@@H](CC(C)C)C(=O)N[C@@H](CO)C(=O)N1)C(N)=O) [pE-R-C*-R-L-S-C*-K-G-P-(D-Nle)-NH2] |
| 72.2 nM | [pGlu]RCRLSCK[dA]P[dNle][dA][dF]-OH (disulfide 3-7; SMILES CCCC[C@@H](NC(=O)[C@@H]1CCCN1C(=O)[C@@H](C)NC(=O)[C@H](CCCCN)NC(=O)[C@@H]1CSSC[C@H](NC(=O)[C@H](CCCNC(=N)N)NC(=O)[C@@H]2CCC(=O)N2)C(=O)N[C@@H](CCCNC(=N)N)C(=O)N[C@@H](CC(C)C)C(=O)N[C@@H](CO)C(=O)N1)C(=O)N[C@H](C)C(=O)N[C@H](Cc1ccccc1)C(=O)O) [pE-R-C*-R-L-S-C*-K-a-P-(D-Nle)-a-f-OH] |
| 3.3 nM | [pGlu]RCRLSCFGP[dNle][dA][dF]-OH (disulfide 3-7; SMILES CCCC[C@@H](NC(=O)[C@@H]1CCCN1C(=O)CNC(=O)[C@H](Cc1ccccc1)NC(=O)[C@@H]1CSSC[C@H](NC(=O)[C@H](CCCNC(=N)N)NC(=O)[C@@H]2CCC(=O)N2)C(=O)N[C@@H](CCCNC(=N)N)C(=O)N[C@@H](CC(C)C)C(=O)N[C@@H](CO)C(=O)N1)C(=O)N[C@H](C)C(=O)N[C@H](Cc1ccccc1)C(=O)O) [pE-R-C*-R-L-S-C*-F-G-P-(D-Nle)-a-f-OH] |
| 85.8 nM | [pGlu]RCRLSCKAP[dNle][dA][dF]-OH (disulfide 3-7; SMILES CCCC[C@@H](NC(=O)[C@@H]1CCCN1C(=O)[C@H](C)NC(=O)[C@H](CCCCN)NC(=O)[C@@H]1CSSC[C@H](NC(=O)[C@H](CCCNC(=N)N)NC(=O)[C@@H]2CCC(=O)N2)C(=O)N[C@@H](CCCNC(=N)N)C(=O)N[C@@H](CC(C)C)C(=O)N[C@@H](CO)C(=O)N1)C(=O)N[C@H](C)C(=O)N[C@H](Cc1ccccc1)C(=O)O) [pE-R-C*-R-L-S-C*-K-A-P-(D-Nle)-a-f-OH] |
| 21.4 nM | Ac-[dC]RPRLSCKGP[Nle]PF-OH (disulfide 1-7; SMILES CCCC[C@H](NC(=O)[C@@H]1CCCN1C(=O)CNC(=O)[C@H](CCCCN)NC(=O)[C@@H]1CSSC[C@@H](NC(C)=O)C(=O)N[C@@H](CCCNC(=N)N)C(=O)N2CCC[C@H]2C(=O)N[C@@H](CCCNC(=N)N)C(=O)N[C@@H](CC(C)C)C(=O)N[C@@H](CO)C(=O)N1)C(=O)N1CCC[C@H]1C(=O)N[C@@H](Cc1ccccc1)C(=O)O) [Ac-c*-R-P-R-L-S-C*-K-G-P-Nle-P-F-OH] |
| 48.7 nM | Ac-[dC]RPRLS[dC]KGP[Nle]PF-OH (disulfide 1-7; SMILES CCCC[C@H](NC(=O)[C@@H]1CCCN1C(=O)CNC(=O)[C@H](CCCCN)NC(=O)[C@H]1CSSC[C@@H](NC(C)=O)C(=O)N[C@@H](CCCNC(=N)N)C(=O)N2CCC[C@H]2C(=O)N[C@@H](CCCNC(=N)N)C(=O)N[C@@H](CC(C)C)C(=O)N[C@@H](CO)C(=O)N1)C(=O)N1CCC[C@H]1C(=O)N[C@@H](Cc1ccccc1)C(=O)O) [Ac-c*-R-P-R-L-S-c*-K-G-P-Nle-P-F-OH] |
| 46.9 nM | Ac-CRPRLSCKGP[Nle]P[dF]-OH (disulfide 1-7; SMILES CCCC[C@H](NC(=O)[C@@H]1CCCN1C(=O)CNC(=O)[C@H](CCCCN)NC(=O)[C@@H]1CSSC[C@H](NC(C)=O)C(=O)N[C@@H](CCCNC(=N)N)C(=O)N2CCC[C@H]2C(=O)N[C@@H](CCCNC(=N)N)C(=O)N[C@@H](CC(C)C)C(=O)N[C@@H](CO)C(=O)N1)C(=O)N1CCC[C@H]1C(=O)N[C@H](Cc1ccccc1)C(=O)O) [Ac-C*-R-P-R-L-S-C*-K-G-P-Nle-P-f-OH] |
| 9.4 nM | Ac-CRPRLSCKGP[Nle]PF-OH (disulfide 1-7; SMILES CCCC[C@H](NC(=O)[C@@H]1CCCN1C(=O)CNC(=O)[C@H](CCCCN)NC(=O)[C@@H]1CSSC[C@H](NC(C)=O)C(=O)N[C@@H](CCCNC(=N)N)C(=O)N2CCC[C@H]2C(=O)N[C@@H](CCCNC(=N)N)C(=O)N[C@@H](CC(C)C)C(=O)N[C@@H](CO)C(=O)N1)C(=O)N1CCC[C@H]1C(=O)N[C@@H](Cc1ccccc1)C(=O)O) [Ac-C*-R-P-R-L-S-C*-K-G-P-Nle-P-F-OH] |
| 12.2 nM | Ac-[dC]RPRLS[hCys]KGP[Nle]PF-OH (disulfide 1-7; SMILES CCCC[C@H](NC(=O)[C@@H]1CCCN1C(=O)CNC(=O)[C@H](CCCCN)NC(=O)[C@@H]1CCSSC[C@@H](NC(C)=O)C(=O)N[C@@H](CCCNC(=N)N)C(=O)N2CCC[C@H]2C(=O)N[C@@H](CCCNC(=N)N)C(=O)N[C@@H](CC(C)C)C(=O)N[C@@H](CO)C(=O)N1)C(=O)N1CCC[C@H]1C(=O)N[C@@H](Cc1ccccc1)C(=O)O) [Ac-c*-R-P-R-L-S-hC*-K-G-P-Nle-P-F-OH] |
| 410 nM | Ac-[d(hCys)]RPRLS[d(hCys)]KGP[Nle]PF-OH (disulfide 1-7; SMILES CCCC[C@H](NC(=O)[C@@H]1CCCN1C(=O)CNC(=O)[C@H](CCCCN)NC(=O)[C@H]1CCSSCC[C@@H](NC(C)=O)C(=O)N[C@@H](CCCNC(=N)N)C(=O)N2CCC[C@H]2C(=O)N[C@@H](CCCNC(=N)N)C(=O)N[C@@H](CC(C)C)C(=O)N[C@@H](CO)C(=O)N1)C(=O)N1CCC[C@H]1C(=O)N[C@@H](Cc1ccccc1)C(=O)O) [Ac-(D-hC)*-R-P-R-L-S-(D-hC)*-K-G-P-Nle-P-F-OH] |
